Laboratory results from patent US20200376136A1 (Regeneron, published 2020).
Read-outs that look alike come from different tables or passages of the source.

T1: human six-transmembrane epithelial antigen of prostate 2 (STEAP2) (human, UniProt Q8NFT2 1-490)
T1 construct: also called hSTEAP2
T1 sequence: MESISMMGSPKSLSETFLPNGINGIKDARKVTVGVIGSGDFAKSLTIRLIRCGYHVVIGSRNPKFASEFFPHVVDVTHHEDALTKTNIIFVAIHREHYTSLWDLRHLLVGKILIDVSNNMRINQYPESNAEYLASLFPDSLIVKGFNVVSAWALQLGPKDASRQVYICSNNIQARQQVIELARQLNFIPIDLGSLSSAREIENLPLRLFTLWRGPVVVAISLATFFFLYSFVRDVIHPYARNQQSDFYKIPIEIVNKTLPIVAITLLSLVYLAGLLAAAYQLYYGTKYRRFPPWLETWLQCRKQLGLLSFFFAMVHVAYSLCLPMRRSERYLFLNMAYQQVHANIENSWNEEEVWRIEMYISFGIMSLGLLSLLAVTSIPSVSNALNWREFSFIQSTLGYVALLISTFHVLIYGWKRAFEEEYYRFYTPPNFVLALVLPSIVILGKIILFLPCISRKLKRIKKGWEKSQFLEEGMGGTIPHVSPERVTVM


Legend:
[1] = molecular target: T1, human six-transmembrane epithelial …; assay: FACS titration on C4-2 cells (endogenous STEAP2), 4-parameter fit
Description: (§1) Briefly, 1×10⁵ cells were incubated with 10 μg/ml of anti STEAP2 antibodies, or isotype control antibodies for 30 min on ice in antibody dilution buffer. Following one wash with antibody dilution buffer, cells were incubated with 10 μg/ml of PE conjugated anti-human or antimouse Fc secondary antibodies for 30 min on ice. Following one additional wash, samples were incubated with Cytofix (1% formaldehyde) for 20 minutes. After one final wash, samples were filtered through a Pall 96 well filtration block, run on a Hypercyt® cytometer and analyzed in ForeCyt™ (IntelliCyt, Albuquerque, N. Mex.). Mean fluorescence intensities (MFI) were expressed as fold change above unstained levels (background). The average fold above background at antibody concentrations of 100-300 nM were determined.

[2] = molecular target: T1, human six-transmembrane epithelial …; assay: FACS on C4-2 cells (endogenous STEAP2), MFI fold above unstained, average at 100-300 nM antibody
Description: as §1

human CD3 [3] = molecular target: T2, human CD3 (human, UniProt P07766 23-207; P04234 22-171); assay: FACS titration on Jurkat cells (human CD3)
T2 construct: As expressed on Jurkat cells or human T cells within the T cell receptor complex; also called hCD3
T2 sequence (P07766 23-207 limits assumed, chain 1 of 2): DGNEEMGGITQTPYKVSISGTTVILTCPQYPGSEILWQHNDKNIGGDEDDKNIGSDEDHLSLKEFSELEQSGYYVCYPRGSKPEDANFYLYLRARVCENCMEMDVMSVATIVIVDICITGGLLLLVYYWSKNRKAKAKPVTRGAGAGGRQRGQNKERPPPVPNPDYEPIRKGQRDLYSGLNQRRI
T2 sequence (P04234 22-171 limits assumed, chain 2 of 2): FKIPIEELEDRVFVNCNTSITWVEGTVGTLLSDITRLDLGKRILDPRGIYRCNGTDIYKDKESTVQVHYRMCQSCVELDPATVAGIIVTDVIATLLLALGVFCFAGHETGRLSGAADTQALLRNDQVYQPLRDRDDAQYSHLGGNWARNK
Description: (§2) Flow cytometric analysis was utilized to determine binding of STEAP2×CD3 bispecific antibodies to Jurkat, PC3_STEAP2/1 chimeric and cynomolgus T cells, followed by detection with a phycoerythrin (PE)-labeled anti-human IgG antibody. […] After incubation, the cells were washed twice with cold PBS containing 1% filtered FBS and a PE-conjugated anti-human secondary antibody was added to the cells and incubated for an additional 30 minutes. Wells containing no antibody or secondary antibody only were used as a control. After incubation, cells were washed, re-suspended in 200 μL cold PBS containing 1% filtered FBS and analyzed by flow cytometry on a BD FACS Canto II.

human CD3 [4] = molecular target: T2, human CD3; assay: cell-based or functional assay
[5] = molecular target: T1, human six-transmembrane epithelial …; assay: FACS on HEK293 cells (low STEAP2), MFI fold above unstained, average at 100-300 nM antibody
Description: as §1

[6] = molecular target: T1, human six-transmembrane epithelial …; assay: FACS titration on C4-2 cells (endogenous STEAP2), 4-parameter fit; remark: listed apart in the source
Description: as §1

[7] = molecular target: T1, human six-transmembrane epithelial …; assay: FACS on C4-2 cells (endogenous STEAP2), MFI fold above unstained, average at 100-300 nM antibody; remark: listed apart in the source
Description: as §1

[8] = molecular target: T3, STEAP2/1 chimeric construct; assay: FACS titration on PC3 cells expressing the STEAP2/1 chimera
T3 construct: Expressed on engineered PC3 human prostate cancer cells; also called PC3_STEAP2/1
Description: as §2

[9] = molecular target: T1, human six-transmembrane epithelial …; assay: cell-based or functional assay

Binder	EC50 [1]	Avg F.A.B (fold above background) [2]	EC50 (human CD3 [3])	hPBMC Proliferation [M] (EC50, with anti-CD28) (human CD3 [4])	EC50 [8]	C4-2 cells depletion EC50 [9]	further results
H1M11243N (antibody, mouse IgG1, V domains shown) VH: QVQLQQSGPGLVKPSQTLSLTCAISGDSVSSNSAAWNWIRQSPSRGLEWLGRTYYRSKWYNDYAVSVKSRITINPDTSKNQFSLHLNSVTPEDTAVYYCARAGIVVVPGPDIYYYYYYGMDVWGQGTTVTVSS VL: not shown	23 nM	116 fold above background					
H2M11163N (antibody, mouse IgG2, V domains shown) VH: QVQLQQSGPGLVKPSQALSLTCAISGDSVSSNSAAWNWIRQSPSRGLEWLGRTYYRSKWYNDYAVSVKSRITINPDTSKNHFSLHLNSMTPEDTAVYYCARARIVVVPGPEVYYYYYYDMDVWGQGTTVTVSS VL: not shown	13 nM	256 fold above background					
BSSTEAP2/CD3-011 (bispecific antibody, V domains shown, also called BSSTEAP2/CD3-0011) VH 1: QVQLVESGGGVVQPGRSLGLSCAASGFTFSSYGMHWVRQAPGKGLEWVAVIWYDGSNKYYVDSVKGRFTISRDNSKNTLYLQMNSLRAEDTAVYYCAREGLRFLENYYYYYGMDVWGQGTTVTVSS VH 2: EVQLVQSGGGLVQPGRSLRLSCAASGFTFADYTMHWVRQTPGKGLEWVSGISWNSGSKDYADSVKGRFTISRDNAKNSLYLQMNSLRTEDTALYYCAKYGSGYGRYFFYAMDVWGQGTTVTVSS VL: EIVLTQSPGTLSLSPGERATLSCRASQSISSTYLAWYQQRPGQAPRLLIYGASSRATGIPDRFSGSGSGTDFTLTISRLEPEDFAVYYCQQYGTSPYTFGQGTKLEIK			8.63 nM	8.62e-12 M			
H1H11897P2 (antibody, human IgG1, V domains shown) VH: EVQLVESGGGLVQPGGSLRLSCAVSGFTFSSYAMSWVRQAPGKGLEWVSVISGSGDFTYHADSVKGRFTISRDNSKSTLYLQLNSLRAEDTAVYYCAKKGLRYFDWYDYWGQGTLVTVSS VL: not shown							Avg F.A.B (fold above background) [5]: 16 fold above background; EC50 [6]: > 50 nM; Avg F.A.B (fold above background) [7]: 29 fold above background
BSSTEAP2/CD3-005 (bispecific antibody, IgG4, V domains shown) VH 1: QVQLQQSGPGLVKPSQTLSLTCAISGDSVSSNRAAWNWIRQSPSRGLQWLGRTYYRSKWYNDYAVSLRSRITINPVTSKNQVALHMNSVTPEDTAVYYCARAGIVVVPGPETFYYYDHGLDVWGQGTTVTVSS VH 2: QVQLVESGGGLVHPGRSLRLSCAASGFKFDDYTMHWVRQAPGKGLEWVSDISWNSGSKGYADSVKGRFTISRDNAKDSLYLQMDSLRAADTAFYYCAKDKSGYGHFYYYAMDVWGQGTTVTVSS VL: DIQMTQSPSSLSASVGDRVTITCRASQSIRSYLNWYQQKPGKAPELLIHAASSLQSGVPSRFSGSGSGTDFTLTISSLQPEDFASYYCQQSYSAPPITFGQGTRLEIK			14.1 nM	2.76e-12 M	31.8 nM	0.00729 nM	
H2M11164N (antibody, mouse IgG2, V domains shown) VH: QVQLQQSGPGLVKPSQTLSLTCVISGDSVSTNSAAWNWIRQSPSRGLEWLGRTYYRSKWYNDYAVSVRSRITINPVTSKNQVALHLNSVTPEDTAVYYCARAGIVVVPGPETYYYYYHGLDVWGQGTTVTVSS VL: DIQMTQSPSSLSASVGDRVTITCRASQNIRSYLNWYQQKPGKAPKLLIHVASSLQSGVPSRFSGSGSGTDFTLTISSLQPEDFATYYCQQSYSTPPITFGHGTRLEIK	3.7 nM	360 fold above background					
H2M11162N (antibody, mouse IgG2, V domains shown) VH: QVQLQQSGPGLVKPSQTLSLTCAISGDSVSSNRAAWNWIRQSPSRGLQWLGRTYYRSKWYNDYAVSLRSRITINPVTSKNQVALHMNSVTPEDTAVYYCARAGIVVVPGPETFYYYDHGLDVWGQGTTVTVSS VL: DIQMTQSPSSLSASVGDRVTITCRASQSIRSYLNWYQQKPGKAPELLIHAASSLQSGVPSRFSGSGSGTDFTLTISSLQPEDFASYYCQQSYSAPPITFGQGTRLEIK	4.9 nM	365 fold above background					
BSSTEAP2/CD3-007 (bispecific antibody, V domains shown) VH 1: QVQLQQSGPGLVKPSQTLSLTCAISGDSVSSNRAAWNWIRQSPSRGLQWLGRTYYRSKWYNDYAVSLRSRITINPVTSKNQVALHMNSVTPEDTAVYYCARAGIVVVPGPETFYYYDHGLDVWGQGTTVTVSS VH 2: EVQLVESGGGLVQPGRSLRLSCAASGFTFADYTMHWVRQAPGKGLEWVSDISWNSGSIAYADSVKGRFTISRDNAKNSLYLQMNSLRTEDTAFYYCAKDSRGYGHYKYLGLDVWGQGTTVTVSS VL: DIQMTQSPSSLSASVGDRVTITCRASQSIRSYLNWYQQKPGKAPELLIHAASSLQSGVPSRFSGSGSGTDFTLTISSLQPEDFASYYCQQSYSAPPITFGQGTRLEIK			0.615 nM	8.26e-11 M	5.37 nM	0.00811 nM	
BSSTEAP2/CD3-008 (bispecific antibody, IgG4, V domains shown) VH 1: QVQLQQSGPGLVKPSQALSLTCAISGDSVSSNSAAWNWIRQSPSRGLEWLGRTYYRSKWYNDYAVSVKSRITINPDTSKNHFSLHLNSMTPEDTAVYYCARARIVVVPGPEVYYYYYYDMDVWGQGTTVTVSS VH 2: QVQLVESGGGLVHPGRSLRLSCAASGFKFDDYTMHWVRQAPGKGLEWVSDISWNSGSKGYADSVKGRFTISRDNAKDSLYLQMDSLRAADTAFYYCAKDKSGYGHFYYYAMDVWGQGTTVTVSS VL: not shown			1.52 nM	7.76e-12 M	68.8 nM	0.00411 nM	
BSSTEAP2/CD3-009 (bispecific antibody, IgG4, V domains shown) VH 1: QVQLQQSGPGLVKPSQTLSLTCVISGDSVSTNSAAWNWIRQSPSRGLEWLGRTYYRSKWYNDYAVSVRSRITINPVTSKNQVALHLNSVTPEDTAVYYCARAGIVVVPGPETYYYYYHGLDVWGQGTTVTVSS VH 2: QVQLVESGGGLVHPGRSLRLSCAASGFKFDDYTMHWVRQAPGKGLEWVSDISWNSGSKGYADSVKGRFTISRDNAKDSLYLQMDSLRAADTAFYYCAKDKSGYGHFYYYAMDVWGQGTTVTVSS VL: DIQMTQSPSSLSASVGDRVTITCRASQNIRSYLNWYQQKPGKAPKLLIHVASSLQSGVPSRFSGSGSGTDFTLTISSLQPEDFATYYCQQSYSTPPITFGHGTRLEIK			4.14 nM	3.68e-13 M	42.1 nM	0.00273 nM	
BSSTEAP2/CD3-006 (bispecific antibody, V domains shown) VH 1: QVQLQQSGPGLVKPSQTLSLTCAISGDSVSSNRAAWNWIRQSPSRGLQWLGRTYYRSKWYNDYAVSLRSRITINPVTSKNQVALHMNSVTPEDTAVYYCARAGIVVVPGPETFYYYDHGLDVWGQGTTVTVSS VH 2: EVQLVESGGGLVQPGRSLRLSCVASGFTFDDYSMHWVRQAPGKGLEWVSGISWNSGSKDYADSVKGRFTISRDNAKNSLYLQMNSLRAEDTALYYCAKYGSGYGKFYHYGLDVWGQGTTVTVSS VL: DIQMTQSPSSLSASVGDRVTITCRASQSIRSYLNWYQQKPGKAPELLIHAASSLQSGVPSRFSGSGSGTDFTLTISSLQPEDFASYYCQQSYSAPPITFGQGTRLEIK			3.98 nM	8.14e-13 M	12.2 nM	0.00393 nM	
H1H11895P2 (antibody, human IgG1, V domains shown) VH: QVQLQESGPGLVKPSETLSLTCTVSGGSISIYYWTWIRQPPGKGLEWIGNIFYSGSTNYNPSLKSRVTISVDTSKNQFSLKLSSVTAADTAVYYCARERLGRYDAFDNWGQGTMVTVSS VL: not shown							Avg F.A.B (fold above background) [5]: 4 fold above background; EC50 [6]: 16 nM; Avg F.A.B (fold above background) [7]: 6 fold above background
H1H11896P2 (antibody, human IgG1, V domains shown) VH: EVQLVESGGGLVQPGGSLRLSCAASRFTFSSYAMSWVRQAPGKGLEWVSLISGSGGRTWYADSVKGRFTISRDNSKNTLFLQMNSLRAEDTAVYYCAKEGGIFGVVTFFDYWGQGTLVTVSS VL: not shown							Avg F.A.B (fold above background) [5]: 7 fold above background; EC50 [6]: 21 nM; Avg F.A.B (fold above background) [7]: 6 fold above background
